The target of assay [1] is HLA-A*01:01. In words: IEDB peptide-MHC binding, purified MHC/direct/fluorescence; filed as Kd, often an IC50 or EC50 that approximates it; ≥ and ≤ were set here for values at or beyond the usual limits of such assays.
For assay [2], the target named is HLA-A*02:01. The description is as above.
The target of assay [3] is HLA-A*11:01. Described as above.
Assay [4] addresses HLA-A*26:01. The description is as above. The conditions noted are these: source organism: Ravn virus - Ravn, Kenya, 1987.
The target in assay [5] is HLA-A*31:01. Described as above.
Assay [6] addresses HLA-A*68:02. The description is as above. The following applies: source organism: Marburg virus - Musoke, Kenya, 1980.
For assay [7], the target named is HLA-A*69:01. Described as above.
The target of assay [8] is HLA-B*07:02. The assay is described as above.
The target in assay [9] is HLA-B*08:01. Described as above. The following applies: source organism: Ravn virus - Ravn, Kenya, 1987.
The target in assay [10] is HLA-B*15:17. Described as above.
Assay [11] addresses HLA-B*18:01. The assay is described as above.
Assay [12] addresses HLA-B*27:05. The assay is described as above.
In assay [13] the target is HLA-B*40:01. The assay is described as above.
Assay [14] concerns the target HLA-B*44:02. The assay is described as above. The following applies: source organism: Marburg virus - Musoke, Kenya, 1980.
In assay [15] the target is HLA-B*48:01. Described as above.
The target in assay [16] is HLA-B*57:01. The assay is described as above.
For assay [17], the target named is HLA-B*58:01. The assay is described as above.
In assay [18] the target is HLA-B*15:09. In words: IEDB peptide-MHC binding, purified MHC/competitive/fluorescence; filed as Kd, often an IC50 or EC50 that approximates it; ≥ and ≤ were set here for values at or beyond the usual limits of such assays.
Assay [19] concerns the target HLA-B*73:01. In words: IEDB peptide-MHC binding, purified MHC/direct/fluorescence; filed as Kd, often an IC50 or EC50 that approximates it; ≥ and ≤ were set here for values at or beyond the usual limits of such assays. The conditions noted are these: source organism: Homo sapiens.
In assay [20] the target is HLA-C*07:02. Described as above. The following applies: source organism: Homo sapiens.
The target in assay [21] is HLA-A*03:01. The assay is described as above. The following applies: source organism: Mycobacterium tuberculosis.
For assay [22], the target named is HLA-B*15:01. The description is as above. The following applies: source organism: Mycobacterium tuberculosis.
For assay [23], the target named is HLA-B*38:01. The assay is described as above. The conditions noted are these: source organism: Mycobacterium tuberculosis str. Haarlem.
The target in assay [24] is HLA-B*46:01. The description is as above. The following applies: source organism: Mycobacterium tuberculosis.
The target of assay [25] is HLA-B*51:01. Described as above. The following applies: source organism: Mycobacterium tuberculosis.
Assay [26] deals with HLA-B*39:01. In words: IEDB peptide-MHC binding, purified MHC/competitive/fluorescence; filed as Kd, often an IC50 or EC50 that approximates it; ≥ and ≤ were set here for values at or beyond the usual limits of such assays. The conditions noted are these: source organism: Mycobacterium tuberculosis variant bovis BCG str. Pasteur 1173P2.
The target of assay [27] is HLA-C*15:02. In words: IEDB peptide-MHC binding, purified MHC/direct/fluorescence; filed as Kd, often an IC50 or EC50 that approximates it; ≥ and ≤ were set here for values at or beyond the usual limits of such assays. The conditions noted are these: source organism: Vibrio vulnificus CMCP6.
The target of assay [28] is HLA-B*48:01. In words: IEDB peptide-MHC binding, purified MHC/competitive/fluorescence; filed as Kd, often an IC50 or EC50 that approximates it; ≥ and ≤ were set here for values at or beyond the usual limits of such assays. The following applies: source organism: Vibrio vulnificus CMCP6.
Assay [29] has as its target HLA-B*40:02. In words: IEDB peptide-MHC binding, cellular MHC/competitive/fluorescence; ≥ and ≤ were set here for values at or beyond the usual limits of such assays. The following applies: source organism: Homo sapiens.
Setting [30] is: source organism: Marburg virus - Musoke, Kenya, 1980.
Where [31] appears, read: source organism: Mycobacterium tuberculosis.

As for AEILSGRVI, the dissociation constant Kd in assay [1] (setting [30]), in [2] (setting [30]), in assay [3] (setting [30]), in assay [4], in assay [5] (setting [30]) and in [6] was at least 20 µM each time. Besides, the equilibrium dissociation constant (Kd) (in general, the constant that tells how readily two partners part at equilibrium) in [7] (setting [30]) is at least 20000 nM; in assay [8] (setting [30]), at least 20000 nM; in assay [9] it was at least 20 µM; in [10] (setting [30]) it was at least 20 µM; in assay [11] (setting [30]), 16.7 µM; in [12] (setting [30]), at least 20 µM. Also, the Kd in assay [13] (setting [30]) is 5.5 nM; in assay [14], at least 21 µM; in assay [15] (setting [30]) it was at least 20000 nM; in assay [16] (setting [30]), at least 20 µM; in [17] (setting [30]), at least 20 µM; in [18] (source organism: Orthomarburgvirus marburgense) it was at least 20 µM.

In the case of FPLWWVSSI, the equilibrium dissociation constant (Kd) in [19] was at least 20 µM; in assay [20], 2300 nM.

Regarding GPASLPTAL, the Kd was at least 20 µM in assay [1] (setting [31]); at least 20 µM in assay [2] (setting [31]); at least 20 µM in [21]; at least 20 µM in assay [3] (setting [31]); at least 20 µM in assay [5] (setting [31]); 1240 nM in [7] (setting [31]). Besides, the Kd was 41.3 nM in assay [8] (setting [31]); at least 20 µM in [22]; at least 20 µM in [10] (setting [31]); at least 20 µM in assay [11] (setting [31]); at least 20 µM in assay [12] (setting [31]); at least 20 µM in assay [23]. Moreover, the Kd in assay [13] (setting [31]) was at least 20000 nM; in [24], at least 20 µM; in assay [15] (setting [31]) it was 2820 nM; in [25], at least 20 µM; in assay [16] (setting [31]), at least 20 µM; in assay [17] (setting [31]), at least 20 µM. Besides, the Kd in assay [18] (source organism: Mycobacterium tuberculosis variant bovis BCG str. Pasteur 1173P2) is at least 20 µM; in assay [26], 679 nM.

For RIHDIAVQL, the equilibrium dissociation constant (Kd) came to 196 nM in [27] and 111 nM in [28].

For SEFSDVDKL, the IC50 (commonly the concentration at which inhibition is half-maximal) in assay [29] turned out to be 1400 nM.

Source of the values: the Immune Epitope Database (IEDB).
